Experimental data reported in publication PMC9603128, “Physiological, Biochemical, and Structural Bioinformatic Analysis of the Multiple Inositol Dehydrogenases from Corynebacterium glutamicum” (Microbiology Spectrum, 2022).

B1: OxiE (Corynebacterium glutamicum ATCC 13032) (protein)
chain: MKNITIGMVGVGRIGRMHVANMLAVAETLKERDLNIEIVLADAMPGFAEQVGADMGVKAAASVDKLIEDGVDALFIATSTAGHVDVLRKGIAAKLPMFCEKPIASDVPESLNIIREIDAAGATVQVGHQRRFDLGYQEAKRRLDAGDLGWLHSLKAVSSDAFPPPVSYCATSGGLFRDVSLHDFDIIRWLTGQDIVEVYAKGSNNGDPEIGAVGDIDTGAALLTLADGTLATAIATRYNGAGHDVRLDVMGSKDSTIVGLDEKSAFASAEEGIDFPTGESHPTFAERFADAYKNECIAFVELILGERENPCTPADAVAAAIVADAAQLSLVTGEPVKIPTVREILEGSAQPVEVRALVPSA
notes: full length, C-terminal Strep-tag II, expressed in C. glutamicum MB001(DE3) from pPREx6-OxiE; StrepTactin and size exclusion
B2: OxiD (Corynebacterium glutamicum ATCC 13032) (protein)
chain: MTLRIALFGAGRIGHVHAANIAANPDLELVVIADPFIEGAQRLAEANGAEAVASPDEVFARDDIDGIVIGSPTSTHVDLITRAVERGIPALCEKPIDLDIEMVRACKEKIGDGASKVMLGFNRRFDPSFAAINARVANQEIGNLEQLVIISRDPAPAPKDYIAGSGGIFRDMTIHDLDMARFFVPNIVEVTATGANVFSQEIAEFNDYDQVIVTLRGSKGELINIVNSRHCSYGYDQRLEAFGSKGMLAADNIRPTTVRKHNAESTEQADPIFNFFLERYDAAYKAELATFAQGIRDGQGFSPNFEDGVIALELANACLESAQTGRTVTLNPANV
notes: full length, C-terminal Strep-tag II, expressed in C. glutamicum MB001(DE3) from pPREx6-OxiD; StrepTactin and size exclusion
B3: IolG (Corynebacterium glutamicum ATCC 13032) (protein)
chain: MSKSLRVGVVGAGAMGADHIDRINNRTSGAHISAIIEPDAARAAAAAEDAPGAQAFTRIEDAIAADAVDAVLIAVPGQFHEPVLVPALEAGLPILCEKPLTPDSESSLRIVELEQKLDKPHIQVGFMRRFDPEYNNLRKLVESGEAGELLMLRGLHRNPSVGESYTQSMLITDSVVHEFDVIPWLAGSRVVSVEVKYPKTSSLAHSGLKEPILVIMELENGVLVDVEMNVNIQFGYQVATEAVFEKGLARIGQPSGMQRWRDGEFLINEHTDFTTRFATAYDRQIQSWVDAVHEGTLVAGPNAWDGYLVALSCEAGVKALDGGVIPVDAAPRPDFYA
notes: full length, C-terminal Strep-tag II, expressed in C. glutamicum MB001(DE3) from pPREx6-IolG; StrepTactin and size exclusion
B4: OxiB (Corynebacterium glutamicum ATCC 13032) (protein)
chain: MTQQELRVAVIGAGMAGKAHAAGYRTASSIYSTTLPNIRLVSIADANVQLAEETAARFGFERFDTSWQAIVEADDIDVVSVVVANFLHREIVEALLASGKHVLCEKPLSDTIEDAEAMIEAAGRAATNGTIARIGLTYRRSPGVAHIRDLVQSGELGKVLHVTGHYWTDYGSNAQAPISWRYKGPNGSGALADVGSHLTYLAEFVAGSDFAAVRGGQLSTVITERPKPLGAIVGHEGGAVSDEYEAVENDDIASFSGSFIGGGTATLQVSRISQGHPNTLGFEVFCEKGSVLFDFRNSGEFKIFTPATSGDISQEAGYRTITIGPKHPYWRGGLAMDAPGVGIGQNEGFVFQARAFLEEIAGISEAESLPRCATLEEGLHNMQLIDAVSQSAAAGGETVAVPAAALIPANN
notes: full length, C-terminal Strep-tag II, expressed in C. glutamicum MB001(DE3) from pPREx6-OxiB; StrepTactin and size exclusion

How the values were obtained:
Test in all cases: purified protein
Format in all cases: biochemical, Corynebacterium glutamicum
Settings in all cases: 5 mM NAD+, pH 7.5, 100 mM potassium phosphate, 1 mM MgSO4, 30 °C, substrate 0.5 to 50 mM
purified protein [1] = substrate: O[C@H]1[C@H](O)[C@@H](O)[C@H](O)[C@@H](O)[C@@H]1O
purified protein [2] = substrate: O[C@H]1[C@H](O)[C@H](O)[C@@H](O)[C@H](O)[C@H]1O
purified protein [3] = substrate: O[C@H]1[C@H](O)[C@@H](O)[C@H](O)[C@@H](O)[C@H]1O

| Protein | Km (purified protein [1]) [mM] | Vmax (purified protein [1]) [µmol/min/mg] | kcat (purified protein [1]) [s⁻¹] | kcat/Km (purified protein [1]) [M⁻¹ s⁻¹] | Km (purified protein [2]) [mM] | Vmax (purified protein [2]) [µmol/min/mg] | kcat (purified protein [2]) [s⁻¹] | kcat/Km (purified protein [2]) [M⁻¹ s⁻¹] | Km (purified protein [3]) [mM] | Vmax (purified protein [3]) [µmol/min/mg] | kcat (purified protein [3]) [s⁻¹] | kcat/Km (purified protein [3]) [M⁻¹ s⁻¹] |
| --- | --- | --- | --- | --- | --- | --- | --- | --- | --- | --- | --- | --- |
| B1 | 12.4 ± 0.8 | 13.4 | 8.5 ± 0.1 | 689 ± 41.5 | 54.1 ± 8.0 | 0.005 | 0.003 | 0.06 | 51.6 ± 3.6 | 3.1 | 3.9 ± 0.3 | 76.7 ± 5.2 |
| B2 |  |  |  |  | 50.6 ± 8.7 | 25.5 | 15.4 ± 1.7 | 308 ± 20 | 19.6 ± 1.8 | 59 | 35.6 ± 1.4 | 1830 ± 107 |
| B3 |  |  |  |  | 61.93 ± 5.61 |  | 8.66 ± 0.54 | 140 ± 7.4 | 60.9 ± 13.7 | 23.1 | 14 ± 1.9 | 235 ± 23.4 |
| B4 | 28.8 ± 7.1 | 0.05 | 0.03 | 1.03 ± 0.11 |  |  |  |  | 62.1 ± 12.5 | 5.8 | 4.2 ± 0.4 | 69.1 ± 7.3 |
